Substitutions are numbered along the chain they refer to. Names may count otherwise.
T1: full-length human KLB on HEK293/hKLB/SRE-luc cells (human, UniProt Q86Z14 1-1044)
T1 construct: amino acids 1-1044 of NP_783864.1
T1 sequence: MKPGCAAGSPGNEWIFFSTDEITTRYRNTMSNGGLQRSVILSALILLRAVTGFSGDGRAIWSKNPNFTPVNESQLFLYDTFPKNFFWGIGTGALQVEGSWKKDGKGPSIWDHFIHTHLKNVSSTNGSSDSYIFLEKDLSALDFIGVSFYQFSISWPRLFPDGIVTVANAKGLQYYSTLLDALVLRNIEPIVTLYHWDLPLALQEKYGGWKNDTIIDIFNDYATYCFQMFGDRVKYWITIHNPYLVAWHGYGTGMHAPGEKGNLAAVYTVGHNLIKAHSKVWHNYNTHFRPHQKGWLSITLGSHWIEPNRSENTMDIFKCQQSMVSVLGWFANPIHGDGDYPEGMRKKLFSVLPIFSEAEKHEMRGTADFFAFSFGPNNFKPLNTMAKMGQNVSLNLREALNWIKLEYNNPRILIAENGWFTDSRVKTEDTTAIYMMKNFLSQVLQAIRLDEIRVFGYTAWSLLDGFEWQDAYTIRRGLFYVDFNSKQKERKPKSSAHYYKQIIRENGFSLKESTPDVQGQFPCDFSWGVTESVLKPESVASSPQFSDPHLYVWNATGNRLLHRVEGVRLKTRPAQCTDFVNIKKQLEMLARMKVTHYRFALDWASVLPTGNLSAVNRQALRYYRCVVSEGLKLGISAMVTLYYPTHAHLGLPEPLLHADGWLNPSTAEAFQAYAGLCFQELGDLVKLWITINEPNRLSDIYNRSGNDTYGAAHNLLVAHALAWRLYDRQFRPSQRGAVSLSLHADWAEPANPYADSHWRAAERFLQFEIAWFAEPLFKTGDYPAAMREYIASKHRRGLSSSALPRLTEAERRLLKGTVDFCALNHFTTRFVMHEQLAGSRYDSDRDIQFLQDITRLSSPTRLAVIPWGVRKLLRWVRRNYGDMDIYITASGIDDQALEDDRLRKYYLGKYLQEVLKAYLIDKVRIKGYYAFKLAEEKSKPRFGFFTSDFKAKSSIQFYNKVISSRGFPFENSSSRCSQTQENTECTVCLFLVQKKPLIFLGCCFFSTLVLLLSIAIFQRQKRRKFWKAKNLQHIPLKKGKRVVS

T2: extracellular domain of human FGFR1c expressed with C-terminal V5 and hexahistidine tags (human, UniProt P11362 22-376)
T2 construct: also called hFGFR1c-V5-6His
T2 sequence: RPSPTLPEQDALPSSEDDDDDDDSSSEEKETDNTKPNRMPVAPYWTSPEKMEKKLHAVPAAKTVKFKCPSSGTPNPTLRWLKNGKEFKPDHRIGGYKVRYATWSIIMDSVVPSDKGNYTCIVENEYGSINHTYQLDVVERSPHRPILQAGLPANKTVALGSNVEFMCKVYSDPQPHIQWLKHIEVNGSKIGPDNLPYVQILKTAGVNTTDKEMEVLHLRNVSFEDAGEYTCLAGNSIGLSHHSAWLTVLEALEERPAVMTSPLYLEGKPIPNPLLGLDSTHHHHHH

B1: H1H8897P (antibody, V domains shown)
VH: QVQLVESGGGLVKPGGSLRLSCAAAGFTFSDYYMSWIRQAPGQGLEWVSYISPSGSTTYYADSVQGRFTISRDNAKSSLYLQMNSLRAEDTAVYYCARTGIQLWSVYFDYWGQGTLVTVSS
VL: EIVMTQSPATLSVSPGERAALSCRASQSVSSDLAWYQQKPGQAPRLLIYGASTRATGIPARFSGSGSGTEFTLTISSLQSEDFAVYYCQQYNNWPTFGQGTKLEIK
notes: H1H Fc prefix (human Fc)
B2: H1H8898P (antibody, V domains shown)
VH: B1 VH with A25S, T28I, Q43K, E46D, V48I, T58I, Q65K, S77N, E89D
VL: EIVMTQSPATLSVSPGERATLSCRASQSVGSNLAWYQQKPGQAPRLLIYGASTRANGIPARFSGSGSGTEFTLTISGLQSEDFAVYYCQQYNNWPTFGQGTKLEIK
notes: H1H Fc prefix (human Fc)
B3: H2aM8098N (antibody, V domains shown)
VH: QLQLQESGPGLVKPSETLSLTCTVSGGSISSSNYYWDWIRQTPEKGLEWIGSIHYSGTSYYNPSLKSRVTISVDTSKNQFSLKLRSVTAADAAVYYCARQTSVYWYFDIWGHGTLVTVST
VL: EIVLTQSPGTLSLSPGEGATLSCRASQSVRNNYLAWYQQKPGQAPRLLIYGASSRAIGIPDRFSGSGSGTDFTLTISRLEPKDFVVYYCQQYGGSLFTFGPGTKVDIK
notes: mouse IgG2 Fc (H2aM prefix)
B4: H4H8859P (antibody, V domains shown)
VH: EVQLVESGGSVVRPGGSLRLSCAASGFTFDVYGMSWVRQAPGKGLEWVSGINWIGGSTGYADSVKGRFTISRDNAKNSLYLQMNSLRAEDTALYYCTREEDYWGQGTLVTVSS
VL: DVVMTQSPLSLAVTLGQPASISCRSSQSLVYSDGNTYLNWFQQRPGQSPRRLFYKVSNRDSGVPDRFSGSGSGTDFTLKISRVEAEDVGIYYCMQGIKWPLTFGGGTKVEIK
notes: human IgG4 Fc (H4H prefix)
B5: H4H8870P (antibody, V domains shown)
VH: B4 VH with S10G, T28K, A40L, N52S, I54T, T58S, A75G, N77K
VL: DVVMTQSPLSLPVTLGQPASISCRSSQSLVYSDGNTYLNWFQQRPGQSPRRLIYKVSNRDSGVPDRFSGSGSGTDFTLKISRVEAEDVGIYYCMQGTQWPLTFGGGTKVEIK
notes: human IgG4 Fc (H4H prefix)
B6: H1H8899P (antibody, V domains shown)
VH: EVQLVESGGGLVQPGGSLRLSCAASGFTFSSHWMSWVRQAPGKGLEWVANIKQDGSEKYYVDSVKGRFTISRDNAKNSLYLQISSLRAEDTAVYYCASNWNFLFDFWGQGTLVTVSS
VL: not shown
B7: H4H8881P (antibody, V domains shown)
VH: QVQLVQSGAEVKKPGASVKVSCKASGYTFTSYVIHWVRQAPGQRLEWMGWSNAANGDTKYSQEFQDRVTFTRDTSASTAYMELSSLRSEDMAVYYCARWNWNYGAFDIWGQGTMVTVSS
VL: DIQMTQSPSSLSASVGDRVTITCQASQDINNYLHWYQQKSGKAPNLLIYDASILETGVPSRFSGSGSGTDFTFTISSLQPEDIATYYCQQYDNLPYTFGQGTKLEIK
notes: human IgG4 Fc (H4H prefix)
B8: H4H8880P (antibody, V domains shown)
VH: EVQLVESGGGVVQPGGSLRLSCAASGFTFSLYAMSWVRQAPGKGLEWVSAISGSAHGAYYADSVKGRFTISRDNSKNSLYLQMNSLRAEDTAIYYCAKDLVIAVAGTFDYWGQGTLVTVSS
VL: DIQMTQSPSSLSASVGDRVTITCRASQIISTYLNWYQQKPGKAPKILIYTASSLKSGVPSRFSGSGSGTDFTLTISSLQPEDFATYYCQQTYSSPRFTFGPGTKVDIK
notes: human IgG4 Fc (H4H prefix)
B9: H1H8900P (antibody, V domains shown)
VH: QVQLVESGGGVVQPGRSLRLSCVASGFTFSSYGMHWVRQAPGKGLEWVAVISFDGSNKYYADSVKGRFTISRDNSKNTLYLQMNSLRPADTAVYYCAKDRSNYYYFGMDVWGQGTTVTVSS
VL: DIVMTQTPLSLPVTPGEPASISCRSSQSLLDSDDGNTYLDWYLQKPGQSPQLLIYTLSYRASGVPDRFSGSGSGTDFTLKISRVEAEDVGVYYCMQRIEFPLTFGGGTKVEIK
notes: H1H Fc prefix (human Fc)

target: T1, full-length human KLB on …; test: FACS on stable HEK293 cells
Method in brief: (§1)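 HEK293 cells stably expressing full-length human FGFR1c with an SRE-luciferase reporter, alongside parental, hKLB and hKLB/hFGFR1c lines, stained with anti-KLB/FGFR1c antibodies in PBS with 1% FBS and analyzed by flow cytometry. Geometric mean fluorescence of viable cells was normalized to unstained cells to give binding ratios.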

Binder	binding ratio to unstained cells
B1	1 fold
B2	1 fold
B3	11 fold
B4	5 fold
B5	4 fold
B6	3 fold
B7	15 fold
B8	14 fold
B9	1 fold

target: T3, full-length human FGFR1c on HEK293/hFGFR1c/SRE-luc cells (human, UniProt P11362 22-822); test: FACS on stable HEK293 cells
T3 construct: amino acids 1-733 of NP_075593
T3 sequence (P11362 other isoform, or with tags, fused parts or gaps limits assumed): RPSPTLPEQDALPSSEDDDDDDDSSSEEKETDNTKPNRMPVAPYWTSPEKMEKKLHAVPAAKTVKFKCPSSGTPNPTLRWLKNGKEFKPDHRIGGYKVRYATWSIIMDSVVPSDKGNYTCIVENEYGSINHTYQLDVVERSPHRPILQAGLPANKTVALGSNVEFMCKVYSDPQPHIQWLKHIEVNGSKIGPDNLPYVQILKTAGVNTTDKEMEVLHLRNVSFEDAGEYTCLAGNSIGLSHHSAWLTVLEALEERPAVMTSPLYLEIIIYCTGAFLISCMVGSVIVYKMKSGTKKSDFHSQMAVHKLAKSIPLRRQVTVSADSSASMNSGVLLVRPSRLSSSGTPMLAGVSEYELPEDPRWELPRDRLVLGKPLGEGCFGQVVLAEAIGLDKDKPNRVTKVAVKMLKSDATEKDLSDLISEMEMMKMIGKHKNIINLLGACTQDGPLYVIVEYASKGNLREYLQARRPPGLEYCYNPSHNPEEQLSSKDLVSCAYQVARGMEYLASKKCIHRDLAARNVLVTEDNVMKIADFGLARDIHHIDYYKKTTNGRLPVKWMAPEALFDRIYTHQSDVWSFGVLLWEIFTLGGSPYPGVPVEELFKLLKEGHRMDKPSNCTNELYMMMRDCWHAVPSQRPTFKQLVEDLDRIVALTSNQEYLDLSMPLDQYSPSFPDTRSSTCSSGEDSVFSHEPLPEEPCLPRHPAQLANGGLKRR
Method in brief: as §1

Binder	binding ratio to unstained cells
B1	1 fold
B2	1 fold
B3	1 fold
B4	5 fold
B5	5 fold
B6	5 fold
B7	2 fold
B8	2 fold
B9	5 fold

target: T2, extracellular domain of human FGFR1c …; test: SPR, mAb captured, 25 C
Description: Equilibrium dissociation constants (KD values) for human KLB or human FGFR1c binding to purified anti-KLB/FGFR1c monoclonal antibodies were determined using a real-time surface plasmon resonance biosensor using a Biacore T-200 or 4000 instrument. The Biacore sensor surface was derivatized by amine coupling with either a polyclonal rabbit anti-mouse antibody (GE, # BR-1008-38) or with a monoclonal mouse anti-human Fc antibody (GE, # BR-1008-39) to capture anti-KLB/FGFR1c monoclonal antibodies expressed with either a mouse Fc or a human Fc, respectively. All Biacore binding studies were performed in a buffer composed of 0.01M HEPES pH 7.4, 0.15M NaCl, 3mM EDTA, 0.05% v/v Surfactant P20 (HBST running buffer). […] Association of hKLB-HA-6His or hFGFR1c-V5-6His to the captured monoclonal antibody was monitored for 3.5 to 4 minutes and the dissociation of hKLB-HA-6His or hFGFR1c-V5-6His in HBST running buffer was monitored for 8-12 minutes. All the binding kinetics experiments were performed at 25° C. or 37° C. Kinetic association (kₐ) and dissociation (kd) rate constants were determined by fitting the real-time sensorgrams to a 1:1 binding model using Scrubber 2.0c curve fitting software. Binding dissociation equilibrium constants (KD) and dissociative half-lives (t½) were calculated from the kinetic rate constants as: […]

Binder	180 nM hFGFR1c-V5-6His Bind (RU)	binding result	Kd	koff	kon	t1/2
B1	0.9 RU	no binding (tested: 180 nM)	–	–	–	–
B2	2.9 RU	no binding (tested: 180 nM)	–	–	–	–
B3	-0.9 RU	–	–	–	–	–
B4	4.9 RU	–	352 nM	0.0536 s⁻¹	152000 M⁻¹ s⁻¹	13.2 s
B5	6.9 RU	–	197 nM	0.0432 s⁻¹	219000 M⁻¹ s⁻¹	16.2 s
B6	2.4 RU	no binding (tested: 180 nM)	–	–	–	–
B7	0.3 RU	no binding (tested: 180 nM)	–	–	–	–
B8	0.4 RU	no binding (tested: 180 nM)	–	–	–	–
B9	1.3 RU	no binding (tested: 180 nM)	–	–	–	–

Reference: patent US20170174769A1 (Regeneron, published 2017)
